Test results published in publication PMC7072198 (2020).

B1: rLZ-8^(Mut 3) (K16A/S18A/K41A/D45A) (natural protein)
chain: SDTALIFRLAWDVKALAFDYTPNWGRGNPNNFIDTVTFPAVLTAKAYTYRVAVSGRNLGVKPSYAVESDGSQKVNFLEYNSGYGIADTNTIQVFVVDPDTNNDFIIAQWN
B2: recombinant Lingzhi-8 (rLZ-8), wild type (natural protein)
chain: MSDTALIFRLAWDVKKLSFDYTPNWGRGNPNNFIDTVTFPKVLTDKAYTYRVAVSGRNLGVKPSYAVESDGSQKVNFLEYNSGYGIADTNTIQVFVVDPDTNNDFIIAQWN

Molecular target: EGFR extracellular domain (ECD), wild type (human, UniProt P00533 25-645)
Assay: SPR

Binder | Kd [nM]
B1 | 9.22
B2 | 4.75
